This passage reports binding result, Kd and Max. results from US20190322762A1 (DEVELOPMENT CENTER FOR BIOTECHNOLOGY, published 2019).

The target in one test is T1, BSA (Bos taurus, UniProt P02769).
T1 construct: The sheet prints only 'BSA'; also called bovine serum albumin; BSA background
Kind of test: ELISA, BSA as background. For orientation: In an ELISA, binding on a coated surface is turned into a signal by an enzyme label.

Test [1] deals with T2, human ENO1 protein (human, UniProt P06733 1-434).
T2 construct: Purified human ENO1 protein coated on ELISA plates or injected as SPR analyte; also called alpha-enolase; enolase-1
Kind of test: SPR, BIAcore 2000, antibody on the chip, ENO1 0.3125 nM to 40 nM as analyte, 25 degree C. An excerpt: (§1) To know the binding kinetics difference among individual antibodies, surface plasmon resonance (SPR) measurement with a BIAcore 2000 (BIAcore. Inc., Piscataway, N.J.) was used as previously described (Karlsson & Falt, (1997) J. Immunol Methods 200:121-133). Carboxymethylated dextran biosensor chips (CM5, BIAcore Inc.) were activated with N-ethyl-N′-(3-dimethylaminopropyl)-carbodiimide hydrochloride (EDC) and N-hydroxysu-ccinimide (NHS) according to the supplier's instructions. Chimera EN10 mAb was diluted with 10 mM sodium acetate, pH 4.8, into 5 microgram/ml before injection at a flow rate of 20 micro L/minute to achieve approximately 100 response units (RU) of coupled protein followed by the injection of 1M ethanolamine to block unreacted groups. For kinetics measurements, two-fold serial dilutions of ENO1 (0.3125 nM to 40 nM) were injected in HBS-P Biacore running buffer provided by the manufacturer (BIAcore, Inc., Piscataway, N.J.) at 25 degree C. at a flow rate of 25 microL/min. and binding responses on the EN10 mAb were corrected by subtraction of responses on a blank flow cell. Association rates (kon or ka) and dissociation rates (koff or kd) were calculated using a simple one-to-one Langmuir binding model with separate fittings of kon and koff was used. (BIAcore™ Evaluation Software version 3.2).
A general note: SPR reads the build-up and loss of mass on a sensor chip optically.

Test [2] has as its target T2, human ENO1 protein. In words: told with the SPR results of FIG. 7B.
Text: as §1

For test [3], the target named is T2, human ENO1 protein. Kind of test: ELISA, human ENO1 coated on the plate; upper plateau of the four parameter logistic fit. The method, then:
(§2) To determine the binding activity of each mutant antibody, 400 ng/100 μL of human ENO1 protein was coated on a 96-well ELISA overnight at 4° C. and the plate further was washed by PBS. The plate was blocked with 1% BSA (w/v) in PBS at room temperature for 1 hour, then washed again with 1×PBS. EN10.4, EN10.5, and humEN10 mAb antibodies were 2-fold serial diluted to 15 different concentrations and added to the plate at 37° C. for 1 hour. After the reaction was complete, the plate was washed 3 times with 1×PBS. A 1/8000 dilution of goat anti-human-HRP antibody was added and incubated at 37° C. for 1 hour, and then the plate washed 3 times with 1×PBS. The TMB substrate was added and reacted at room temperature for 30 minutes. The reaction was stopped by adding 1N HCl, and OD 450 was read to determine the activity. Every study was repeated three times. Data are presented as mean±SD. OD readings and concentrations of antibody were used to make a multiple scatter figure by Sigmaplot. The KD values were predicted by four parameter logistic fit.
(§3) There is no significant affinity difference among three different editions of hum EN10 mAb antibodies. […] Due to the structure similarity between cysteine and serine, EN10.5 is chosen to generate antibody production cell lines.

In test [4] the target is T2, human ENO1 protein. Kind of test: ELISA, 400 ng/100 µL human ENO1 coated, antibody in 15 two-fold dilutions, four parameter logistic fit. As to the method:
as §2, §3

Test [5] has as its target T2, human ENO1 protein. Kind of test: ENO1 binding ELISA.
Test [6] has as its target T3, ENO1 mutant G312 to alanine (human, UniProt P06733 1-434).
T3 construct: Expressed in E. coli and purified on Ni-agarose
In words: ELISA, ENO1 mutant A312 coated, EN10.5 mAb titrated, four parameter logistic fit. The method, then: (§4) To determine the binding activity of each mutant protein, 400 ng/100 μL of human ENO1 protein or mutated ENO1 protein was coated on a 96-well ELISA plate and incubated overnight at 4° C. and the plate was washed with PBS. The plate was blocked with 1% BSA (w/v) in PBS at room temperature for 1 hour, then washed again with 1×PBS. A primary antibody (EN10.5 mAb) was 2-fold serial diluted to 15 different concentrations and added to the plate at 37° C. for 1 hour. After the reaction was done, the plate was washed 3 times with 1×PBS. A 1/8000 dilution of goat anti-mouse-HRP antibody was added and incubated at 37° C. for 1 hour, then the plate was washed 3 times with 1×PBS. Then, TMB substrate was added and the reaction was allowed to proceed at room temperature for 30 minutes. The reaction was stopped by adding 1N HCl and OD450 was read to determine the activity. Each study was repeated three times. Data are presented as mean±SD. OD readings and concentrations of antibody were used to make a multiple scatter plot using Sigmaplot™. The KD values were predicted by four parameter logistic fit.
(§5) Thus, the crystal structure of ENO1 was downloaded from protein data bank (pdb-entry: 2PSN) to analyze residue positions from this region. […] Every purified ENO1 mutant protein was analyzed for any KD changes by ENO1 binding in ELISA. […]

Another test addresses T4, A333 (human).
T4 construct: Sixth mutant of the alanine scan; It is named only on the sheets; the text lists five mutants
In words: ELISA, ENO1 mutant A333 coated, EN10.5 mAb titrated, four parameter logistic fit. The method, then:
as §4, §5

The target in test [7] is T5, ENO1 mutant D299 to alanine (human, UniProt P06733 1-434).
T5 construct: Expressed in E. coli and purified on Ni-agarose
Kind of test: ELISA, ENO1 mutant A299 coated, EN10.5 mAb titrated, four parameter logistic fit. The method, then: as §4, §5

The target of test [8] is T6, ENO1 mutant R327 to alanine (human, UniProt P06733 1-434).
T6 construct: Expressed in E. coli and purified on Ni-agarose
In words: ELISA, ENO1 mutant A327 coated, EN10.5 mAb titrated. The method, then:
as §4, §5

The target of test [9] is T7, ENO1 mutant S310 to alanine (human, UniProt P06733 1-434).
T7 construct: Expressed in E. coli and purified on Ni-agarose
Kind of test: ELISA, ENO1 mutant A310 coated, EN10.5 mAb titrated, four parameter logistic fit. As to the method:
as §4, §5

The target in test [10] is T8, ENO1 mutant Q298 to alanine (human, UniProt P06733 1-434).
T8 construct: Expressed in E. coli and purified on Ni-agarose
Kind of test: ELISA, ENO1 mutant A298 coated, EN10.5 mAb titrated, four parameter logistic fit. As to the method: as §4, §5

Residue numbers refer to the chain shown, from its start.

T2 sequence (P06733 whole entry): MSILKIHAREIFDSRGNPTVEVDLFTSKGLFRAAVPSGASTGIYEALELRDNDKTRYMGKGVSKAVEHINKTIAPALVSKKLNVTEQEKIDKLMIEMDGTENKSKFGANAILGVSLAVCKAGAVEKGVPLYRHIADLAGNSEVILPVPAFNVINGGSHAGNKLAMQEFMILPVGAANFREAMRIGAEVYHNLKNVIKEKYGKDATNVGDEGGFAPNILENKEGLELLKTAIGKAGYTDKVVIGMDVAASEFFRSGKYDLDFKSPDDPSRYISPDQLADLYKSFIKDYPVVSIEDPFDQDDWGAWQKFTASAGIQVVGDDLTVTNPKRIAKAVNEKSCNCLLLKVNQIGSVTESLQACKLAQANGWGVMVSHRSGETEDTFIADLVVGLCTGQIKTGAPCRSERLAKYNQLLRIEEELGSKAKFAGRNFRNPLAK
T5 sequence (P06733 other isoform, or with tags, fused parts or gaps mutant limits assumed): as the sequence (P06733 whole entry) above, with D299A counted along it
T8 sequence (P06733 other isoform, or with tags, fused parts or gaps mutant limits assumed): as the sequence (P06733 whole entry) above, with Q298A counted along it
T7 sequence (P06733 other isoform, or with tags, fused parts or gaps mutant limits assumed): as the sequence (P06733 whole entry) above, with S310A counted along it
T3 sequence (P06733 other isoform, or with tags, fused parts or gaps mutant limits assumed): as the sequence (P06733 whole entry) above, with G312A counted along it
T1 sequence (P02769 25-607 limits assumed): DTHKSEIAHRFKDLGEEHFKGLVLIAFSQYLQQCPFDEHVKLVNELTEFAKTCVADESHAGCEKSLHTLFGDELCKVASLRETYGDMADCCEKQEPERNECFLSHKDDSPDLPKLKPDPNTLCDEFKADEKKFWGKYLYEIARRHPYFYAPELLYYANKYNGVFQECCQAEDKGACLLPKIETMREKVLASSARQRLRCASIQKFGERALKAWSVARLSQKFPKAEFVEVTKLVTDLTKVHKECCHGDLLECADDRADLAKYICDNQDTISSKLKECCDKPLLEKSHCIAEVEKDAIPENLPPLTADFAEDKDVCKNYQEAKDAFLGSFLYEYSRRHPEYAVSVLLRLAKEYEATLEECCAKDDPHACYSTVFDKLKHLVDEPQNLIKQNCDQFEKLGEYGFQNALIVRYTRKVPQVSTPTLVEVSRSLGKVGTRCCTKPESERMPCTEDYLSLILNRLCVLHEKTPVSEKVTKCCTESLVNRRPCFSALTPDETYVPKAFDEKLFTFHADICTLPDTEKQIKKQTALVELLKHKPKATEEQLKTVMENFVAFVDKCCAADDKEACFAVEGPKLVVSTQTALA
T6 sequence (P06733 other isoform, or with tags, fused parts or gaps mutant limits assumed): as the sequence (P06733 whole entry) above, with R327A counted along it

B1: EN10 mAb (antibody, V domains shown)
VH: EVQLQQSGPELVKPGASVKMSCKASGYTFTSCVMNWVKQKPGQGLEWIGYINPYNDGTKYNEKFKGKATLTSDKSSSTAYMELSSLTSEDSAVYYCAREGFYYGNFDNWGQGTTLTVSS
VL: DIQMTQSPASLSASVGETVTITCRASENIYSYLTWYQQKQGKSPQLLVYNAKTLPEGVPSRFSGSGSGTQFSLKINSLQPEDFGSYYCQHHYGTPYTFGGGTKLEITR
notes: Mouse monoclonal antibody purified from hybridoma ascites; also called anti-human ENO1 antibody EN10 mAb; EN10 mAb antibody
Regarding B1, the binding result with BSA is “no binding”.

B2: hum EN10 mAb IMGT (antibody, V domains shown)
VH: QVQLVQSGAEVKKPGASVKVSCKASGYTFTSCVMNWVRQAPGQGLEWMGYINPYNDGTKYNEKFKGRVTMTTDTSTSTAYMELRSLRSDDTAVYYCAREGFYYGNFDNWGQGTLVTVSS
VL: DIQMTQSPSSLSASVGDRVTITCRASENIYSYLTWYQQKPGKAPKLLIYNAKTLPEGVPSRFSGSGSGTDFTLTISSLQPEDFATYYCQHHYGTPYTFGQGTKLEIKR
notes: Humanized antibody, human IgG; also called Hum EN10 IMGT; hum ENO10mAb IMGT
By Kd is commonly meant the concentration at which binding is half-saturated. A high value points to weaker binding. For the molecule B2, the Kd with human ENO1 protein [1] was 0.219 nM; with human ENO1 protein [2], approximately 0.203 nM; with human ENO1 protein [4], 0.163 nM; in the test with human ENO1 protein [5], 0.0365 nM. Further, in the test with human ENO1 protein [3], the Max. is 2.99 O.D 450 nm.

B3: hum EN10 mAb 4D5 (antibody, V domains shown)
VH: EVQLVESGGGLVQPGGSLRLSCAASGYTFTSCVMNWVRQAPGKGLEWVAYINPYNDGTKYNEKFKGRFTISRDDSKNTLYLQMNSLRAEDTAVYYCAREGFYYGNFDNWGQGTLVTVSS
VL: B2 VL
notes: Humanized antibody, human IgG; also called hum ENO10mAb 4D5; hum EN10 mAb 45D
In the test with human ENO1 protein [1], B3 returned a Kd of 0.5 nM.

B4: EN10.5 (antibody, V domains shown)
VH: B2 VH with C32S
VL: B2 VL
notes: same light chain as humEN10 mAb; human IgG; also called EN10.5 mAb; mAb EN10.5
With B4, the dissociation constant (Kd) in [6] was 0.2 nM; with A333, 0.21 nM; in [7] it was 64.3 nM; in test [9], 0.217 nM; with human ENO1 protein [4] it was 0.157 nM; in [10], 0.238 nM. In addition, in the test with human ENO1 protein [3], the Max. stood at 2.97 O.D 450 nm. Further, in test [8], the binding result is listed as “no binding (tested: about 1e-7 M)”.

B5: EN10.4 (antibody, V domains shown)
VH: B2 VH with C32A
VL: B2 VL
notes: same light chain as humEN10 mAb; human IgG from FreeStyle293 cells; also called EN10.4 mAb; alanine mutant of humEN10 mAb antibody
In the test with human ENO1 protein [3], B5 displayed a Max. of 2.94 O.D 450 nm. Moreover, in the test with human ENO1 protein [4], binding was characterised by a dissociation constant (Kd) of 0.14 nM.
